Biological target: T1, human BTN1A1 on cells (human, UniProt Q13410 27-526)
T1 construct: also called HEK293T cells overexpressing BTN1A1
T1 sequence: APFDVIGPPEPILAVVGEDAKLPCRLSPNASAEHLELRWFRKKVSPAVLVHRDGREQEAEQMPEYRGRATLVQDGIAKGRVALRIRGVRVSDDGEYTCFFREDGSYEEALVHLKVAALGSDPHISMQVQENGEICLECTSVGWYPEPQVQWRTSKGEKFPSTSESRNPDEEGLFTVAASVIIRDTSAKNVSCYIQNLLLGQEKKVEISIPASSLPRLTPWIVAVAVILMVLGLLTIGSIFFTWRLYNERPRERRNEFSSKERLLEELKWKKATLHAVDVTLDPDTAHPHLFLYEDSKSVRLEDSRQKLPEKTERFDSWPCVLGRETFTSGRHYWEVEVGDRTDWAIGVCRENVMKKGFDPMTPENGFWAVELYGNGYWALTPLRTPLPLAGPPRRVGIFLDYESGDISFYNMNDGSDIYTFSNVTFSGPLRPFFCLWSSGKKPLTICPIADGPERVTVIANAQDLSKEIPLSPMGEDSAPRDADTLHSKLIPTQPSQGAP
Experiment: FACS, HEK293T cells overexpressing BTN1A1
Procedure: To identify anti-BTN1A1-Fc MAbs that were specific for and which preferentially bound human BTN1A1-Fc antigen, different types of assays were performed. In a screening assay to detect preferential binding of MAbs to BTN1A1, antibody binding was determined based on the measurement of fluorescence intensity through FACS analysis (using cell membrane bound proteins). By way of example, the assay was performed using the HEK293T human embryonic kidney cell line. Illustratively, HEK293T cells overexpressing BTN1A1 were incubated with anti-BTN1A1 antibodies existing in hybridoma culture supernatant. After washing, secondary antibodies conjugated with FITC were added as detection agent. Fluorescence intensity (measured fluorescence intensity, MFI) was measured via FACS I flow cytometry analysis to assess the relative binding of the anti-BTN1A1 antibodies to membrane bound BTN1A1 WT on cells. […] Based on the binding analysis, sixty seven candidate MAb-producing hybridomas were selected, grown in ADCF medium, and their supernatant containing monoclonal antibody was concentrated and purified.

Binder | FACS (MFI)
STC2739 (antibody, V domains shown, mouse hybridoma monoclonal antibody raised against human BTN1A1-Fc, kappa light chain) VH: QVQLKQSGPGLVQPSQSLSITCTVSGFSLTTHGVNWVRQSPGKGLEWLGVIWSGGSTDYNAAFISRLSISKDNSKSQVFFKMNSLQANDTAIYYCARPYYYGAMDYWGQGTSVTVSS VL: QIVLTQSPSIMSASPGEKVTITCSASSSVSYIHWFQQKPGTSPKLWIYSTSNLASGVPARFSGSGSGTSYSLTISRMEAEDAATYYCQQRSIYPLTFGAGTKLELK | 841
STC2602 (antibody, V domains shown, mouse hybridoma monoclonal antibody, kappa light chain) VH: EVQLQQSGPELVKPGASVKISCKASGFSFIGYYIDWVKQSPGKSLEWIGYIYPSNGETSYHQKCKGKATLTVDKSSSTVNMQLNSLTSEDSAVYYCARYGNYDWFFDVWGAGTTVTVSS VL: QIVLTQSPAIMSASPGEKVTITCSASSSVSYMHWFQQKPGTSPKFWIYSTSNLASGVPIRFSGSGSGTSYSLTISRMEAEDAATYYCQQRSSYPYTFGGGTKLEIK | 69.5
STC2778 (antibody, V domains shown, mouse hybridoma monoclonal antibody raised against human BTN1A1-Fc, kappa light chain) VH: QIQLVQSGPELKKPGETVKISCKASGYSFTNYGMNWVKQAPGKGLKWMGWINIYTGETTYGDDFKGRFAFSLETSASTAYLQINNLRSEDTATYFCVRGGTMIMYWGQGTTLTVSS VL: DIVLTQSPATLSVTPGDSVSLSCRASQSISNNLHWHQQKSHESPRLLIKYASQSMSGIPSRFSGSGSGTDFTLSINSVETEDFGMYFCQQSDSWPLTFGAGTKLELK | 2340
